FRET efficiency E (Ex 473 nm) and FRET efficiency E (Ex 532 nm) data for one substance are collected here from paper PMC10338669.

This test has as its target aSyn-MFP (alpha-synuclein with C-terminal MFP/mMaroon1, single-fusion acceptor) (UniProt P37840). The experiment in a line: FRET or BRET. (In general: BRET reads energy transfer from a luciferase to a nearby fluorophore.)

Regarding “O-aSyn (alpha-synuclein with N-terminal OFP/mCyRFP1, single-fusion donor) (from UniProt P37840 1-140) (natural protein)”, the FRET efficiency E (Ex 473 nm) was 0.266 and the FRET efficiency E (Ex 532 nm) turned out to be 0.229.
